Laboratory results reported in patent publication US20150265679A1, “METHOD OF REDUCING ADVERSE EFFECTS IN A CANCER PATIENT UNDREGOING TREATMENT WITH A MEK INHIBITOR” (THE UNITED STATES OF AMERICA, as represented by THE …, priority 2013, published 2015).

How the values were obtained:
[1] = tested on: patients with central serious chorioretinopathy; assay: Topical IFN gamma in patients with central serious chorioretinopathy (ongoing trial); type: in vivo, human
Text: Topical IFN gamma was also studied in the treatment of serious retinal detachments in patients with central serious chorioretinopathy. […] This occurred during the second week of a two-week course of therapy.

[2] = tested on: patients with uveitic cystoid macular edema; assay: Phase I open label trial of topical IFNγ in patients with CME secondary to uveitis; type: in vivo, human
Method: A phase I open label clinical trial was conducted aimed at investigating the safety and tolerability of topically applied IFN gamma in patients with uveitic cystoid macular edema. To test whether cystoid macular edema (CME), secondary to uveitis, is caused by the disequilibrium of the JAK/STAT and mTor signal transduction pathways in the retinal pigment epithelium (RPE), IFNγ was topically applied in human patients. Five participants with CME secondary to uveitis received a topical ocular instillation of IFNγ in a Phase I, non-randomized, prospective, uncontrolled, dose-escalation, single-center study. The study involved a one-time instillation or series of instillations of IFNγ on the cornea and measurement of a response with optical coherence tomography (OCT) over a three hour period.
A 25% decrease in macular thickness is observed at a post-instillation as compared to baseline. In the study, the first two participants received one instillation (each instillation contains 10 μg in 0.05 mL solution) on the cornea at time zero, the next two participants received two instillations, 10 minutes apart, for a total dosage of 20 and the final participant received three instillations, 10 minutes apart, for a total of 30 μg. OCT was obtained at −60 minutes, −30 minutes and just before the instillation(s). Repeat OCTs were taken at +30 minutes, +60 minutes and +120 minutes. All participants returned for a one-week safety visit.
The primary outcome was the change in central macular thickness as measured by OCT in response to interferon IFNγ as compared with baseline. Secondary outcomes included changes in macular volume as measured by OCT, visual acuity, intraocular pressure, intraocular inflammation and ocular surface irritation assessed by fluorescein staining of the cornea and conjunctiva to assess toxicity. For safety measurements, the following were measured: the presence of ocular surface irritation assessed by fluorescein staining of the cornea and conjunctiva to assess toxicity; the number and severity of systemic and ocular toxicities and adverse events; and the proportion of participants with a visual loss of ≧15 ETDRS letters.
All participants undergo a dilated ophthalmic examination the day of the testing. One eye is chosen as the study eye. The participants receive the evaluation around 12:00 p.m. Participants then have a OCT at −60 minutes, −30 minutes and just before the ocular instillation. The ocular instillation occurs no earlier than 1:00 p.m. Repeat OCT recordings are taken at +30, +60 and +120 minutes after instillation. There is a window of ±15 minutes for each OCT test.
OCT testing is performed with the Cirrus™ high-definition OCT (Carl Zeiss Meditec, Inc.) scanner using a 512×128 scan pattern where a 6×6-mm area on the retina is scanned with 128 horizontal lines, each consisting of 512 A-scans per line (a total of 65,536 sampled points) within a scan time of 2.4 seconds. The scanner automatically focuses on the macula. Data for macular thickness calculations are collected from an array of A-scans distributed across the macular using the macular thickness analysis algorithm. The three pre-instillation measurements are averaged to calculate the baseline macular thickness measurement. Post-instillation OCT macular thickness calculations (+30, +60 and +120 minutes) is compared to the baseline measurement separately. A 25% reduction in central macular thickness is observed in treated patients.
Interferon γ-1b is administered as follows: • 1. Topical tetracaine 1% or proparacaine 0.5% drops are applied to the study eye surface one to two minutes prior to instillation. • 2. The participant applies punctal pressure to his/her […] eye. • 3. The investigator holds the participant's study eye open. • 4. A volume of 0.05 mL of IFNγ is instilled on the center of the study eye's cornea from a tuberculin syringe. • 5. […]

[3] = tested on: hfRPE monolayers; conditions: IFN-γ in basal bath, increased from 7; Li et al., 2009; cited from earlier work
[4] = tested on: hfRPE monolayers; assay: Transepithelial fluid transport (JV) across hfRPE monolayers, capacitance probe technique; type: cell-based, human; conditions: for normal fluid absorption after MEK inhibitor: IFN-γ (15 ng/ml, FIG. 10B) to basal bath after 72 hours 10 μM plus acute 100 μM MEK inhibitor; for rescue of apical MEK inhibitor-induced reduction in fluid absorption: basolateral IFN-γ (10 ng/ml, FIGS. 11A, 11B) after acute apical MEK inhibitor
Text: Confluent monolayers of hfRPE cultured on transwells were mounted in an electrophysiological chamber and transepithelial water flow (JV) measurements were made with a capacitance probe technique as described previously in Maminishkis 2006; Shi, G., et al., Invest Ophthalmol Vis Sci, 2008, 49, 4620-4630; Edelman, J. L., et al., Invest Ophthalmol Vis Sci, 1991, 32, 3033-3040; Jiang, C., et al., Science, 1993, 262, 424-427; and Maminishkis, A., et al., Invest Ophthalmol Vis Sci, 2002, 43, 3555-3566, each incorporated herein by reference in its entirety. In brief, the RPE is mounted in a water-jacketed ? ssing chamber and oriented vertically with the apical and basolateral membranes separately exposed to Ringer's solution held in bathing reservoirs. Stainless steel probes (Accumeasure System 1000; MT Instruments, Latham, N.Y.) are lowered into the apical and basolateral bathing wells to measure the capacitance of the air gap between the probe and fluid meniscus. Fluid transport rate JV (μl·cm^−2·hr^−1) is determined by monitoring the fluid movement-induced changes in the air gap capacitance at the apical and basolateral baths. The probes on both sides of the tissue are backed off from the surface of the Ringer's solution during a bathing solution change.
The capacitance probes are moved away from the bathing reservoirs and fresh control Ringer's solution perfused into the chamber. The fluid transport apparatus also allows continuous monitoring of TEP and RT, but for technical reasons (e.g., solution perfusion rates, TEP/RT sampling rates, and electrode stability) the initial changes in TEP and RT can only be compared to those seen in the electrophysiology experiments. Experiments are continued only if JV, TEP, and RT are not appreciably altered by this control-to-control Ringer's solution change. The water jacketed ? ssing chamber is placed in an incubator to maintain steady-state control over temperature, pCO2, and humidity.
Tissue viability was ascertained by recording transepithelial potential (TEP) and total tissue resistance (RT). It should be noted that the solution composition changes in this chamber were relatively slow (≈1-2 chamber volumes per minute) and the data sampling rate was once per minute, more than two orders of magnitude slower than the sampling rate in the electrophysiology chamber (see below). Therefore it was not possible to record fast changes, in seconds or minutes, in JV, TEP, or RT. After addition of IFNγ to the apical or basal baths, steady-state JV, TEP, and RT were recorded for 20-30 minutes. In control experiments, successive additions of IFNγ were made to test for the repeatability and reversibility of responses.
Effects of MEK inhibitor on human fetal retinal pigment epithelium (hfRPE) were measured following acute and chronic addition of inhibitor. Experiments were performed using hfRPE monolayers grown on semipermeable inserts with media access to apical and basal sides of the epithelium. In different sets of experiments, MEK inhibitor was added to apical, basal, or both sides of hfRPE mounted in modified ? ssing chambers. In chronic experiments hfRPE were pre-treated with 10 μM MEK inhibitor added to apical and basal baths for 24, 48, or 72 hours. For chronic experiments lasting more than 24 hours, transepithelial resistance (TER) was measured daily. Prior to the transfer of the epithelial monolayer to the ? ssing chamber, the TER of whole insert was compared to the TER measured in the ? ssing chamber. This procedure helps confirm the tissue integrity following the transfer from the cell culture insert to the ? ssing chamber. The TER summary data for chronic experiments contains cumulative recordings of TER obtained from inserts and ? ssing chambers.

[5] = tested on: animal model of retinal-reattachment; conditions: topical addition, cited from earlier work

B1: IFNγ: interferon-γ or, equivalently, interferon-γ1b (CAS number 82115-62-6), pleiotropic cytokine (protein, UniProt P01579 24-161, looked up)
Interferon gamma: QDPYVKEAENLKKYFNAGHSDVADNGTLFLGILKNWKEESDRKIMQSQIVSFYFKLFKNFKDDQSIQKSVETIKEDMNVKFFNSNKKKRDDFEKLTNYSVTDLNVQRKAIHELIQVMAELSPAAKTGKRKRSQMLFRG
- resolution of redness after cessation of drops ([1]; both affected patients, no persistent ocular changes): within one day
- clinical outcome in serious retinal detachments ([1]; four patients studied so far): some clinical success
- painless conjunctival injection with no change in vision ([1]; second week of a two-week course of therapy): two of the four patients
- ocular surface irritation by slit lamp exam ([2]; 5 patients): no patient developed evidence of ocular surface irritation
- serious adverse events ([2]; 5 patients): no serious adverse events
- tolerability of drops ([2]; 5 patients, 1-week period): well tolerated
- patients reporting irritation or other new ocular complaints ([2]; 5 patients, during 1-week period or beyond): none of the 5 patients
- thickness and volume of macular edema by OCT ([2]; most patients): slight (albeit clinically insignificant) decrease
- decrease in (central) macular thickness by OCT compared to baseline ([2]; topical instillation 10-30 μg, post-instillation +30, +60, +120 minutes): 25%
- steady state Jv after IFN-γ [3]: 16 μl·cm−2·hr^−1
- normal fluid absorption after MEK inhibitor [4]: rescue of fluid transport
- normal fluid absorption after MEK inhibitor ([4]; listed as IFN-γ): partially restored
- restoration of MEK inhibitor-decreased fluid absorption ([4]; IFN-γ added to basolateral bath after chronic 10 μM (72 hours) plus acute apical 100 μM MEK inhibitor): almost completely restored
- increase of JV ([4]; IFNγ 5 ng/ml in the basal bath (FIG. 7)): ~8.6 μl·cm−2·hr^−1
- fluid transport across RPE ([4]; IFNγ added to the basal side of hfRPE (FIG. 7)): significantly increase
- cell viability as measured by TEP and RT ([4]; IFNγ treatment of hfRPE): did not affect cell viability
- rescue of apical MEK inhibitor-induced reduction in fluid absorption [4]: reverse
- rescue of apical MEK inhibitor-induced reduction in fluid absorption ([4]; listed as IFN-γ): almost completely rescued
- mean JV after IFNγ ([4]; increased from 12.9±1.6, mean±SEM, p<0.01): 20.5±3.1 μl·cm−2·hr^−1
- subretinal fluid ([5]; monitored by high resolution OCT): remove fluid from the subretinal space
- JAK/STAT pathway [5]: activated
